B1: PTEN, P60484 (peptide)
chain: DEDQHTQITKV
B2: MAP2K2, P36507 (peptide)
chain: QPGTPTRTAV
B3: KCNA5, P22460 (peptide)
chain: CLDTSRETDL
B4: CBP, Q92793 (peptide)
chain: TGDTLEKFVEGL
B5: SLCO1C1, Q9NYB5 (peptide)
chain: NYWPGKETQL
B6: HTLV1-TAX1, P03409 (peptide)
chain: SEKHFRETEV
B7: RPS6KA1, Q15418 (peptide)
chain: RRVRKLPSTTL

Legend:
Test in all cases: holdup assay
Design in all cases: key: below the threshold = too weak to quantify, mostly under pKd 3.1 to 4
Details in all cases: plain residues with an end cap or a label only (N-terminal biotin on a linker: ttds)
[1] = target: MAST3, O60307
[2] = target: T1, MPDZ_11, O75970
T1 sequence (O75970 1720-1817, limits assumed, looked up): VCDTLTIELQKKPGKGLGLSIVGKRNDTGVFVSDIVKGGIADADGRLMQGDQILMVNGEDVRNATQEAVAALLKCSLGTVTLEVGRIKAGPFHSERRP

[3] = target: T2, MPP5, Q8N3R9
T2 sequence (Q8N3R9 251-346, limits assumed, looked up): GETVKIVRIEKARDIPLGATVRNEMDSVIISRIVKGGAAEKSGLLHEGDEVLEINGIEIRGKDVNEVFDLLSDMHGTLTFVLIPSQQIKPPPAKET

[4] = target: CNKSR3, Q6P9H4
[5] = target: T3, MPP1, Q00013
T3 sequence (Q00013 66-162, limits assumed, looked up): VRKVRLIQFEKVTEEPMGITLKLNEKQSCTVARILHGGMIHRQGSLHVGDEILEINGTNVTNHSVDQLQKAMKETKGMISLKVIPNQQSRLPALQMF

[6] = target: DVL2, O14641
[7] = target: T4, PDZD2_6, O15018
T4 sequence (O15018 2745-2839, limits assumed, looked up): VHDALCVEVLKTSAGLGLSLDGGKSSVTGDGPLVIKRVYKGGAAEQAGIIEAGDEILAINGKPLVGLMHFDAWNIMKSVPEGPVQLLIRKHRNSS

[8] = target: T5, SYNPO2L, Q9H987
T5 sequence (Q9H987 1-98, limits assumed, looked up): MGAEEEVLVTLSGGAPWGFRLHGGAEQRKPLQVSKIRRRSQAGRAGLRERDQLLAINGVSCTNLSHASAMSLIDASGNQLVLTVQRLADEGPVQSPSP

[9] = target: T6, SHANK2, Q9UPX8
T6 sequence (Q9UPX8 621-730, limits assumed, looked up): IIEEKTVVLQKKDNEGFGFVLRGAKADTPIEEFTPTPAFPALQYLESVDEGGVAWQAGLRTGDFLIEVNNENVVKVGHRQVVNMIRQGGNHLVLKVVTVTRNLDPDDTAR

[10] = target: T7, PDLIM3, Q53GG5
T7 sequence (Q53GG5 1-94, limits assumed, looked up): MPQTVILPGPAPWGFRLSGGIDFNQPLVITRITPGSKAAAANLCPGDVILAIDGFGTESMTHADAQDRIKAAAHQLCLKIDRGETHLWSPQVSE

[11] = target: T8, NHERF1_2, O14745
T8 sequence (O14745 149-244, limits assumed, looked up): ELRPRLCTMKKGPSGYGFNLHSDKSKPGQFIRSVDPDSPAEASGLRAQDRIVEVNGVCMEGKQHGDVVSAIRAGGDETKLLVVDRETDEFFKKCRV

[12] = target: T9, GIPC1, O14908
T9 sequence (O14908 128-223, limits assumed, looked up): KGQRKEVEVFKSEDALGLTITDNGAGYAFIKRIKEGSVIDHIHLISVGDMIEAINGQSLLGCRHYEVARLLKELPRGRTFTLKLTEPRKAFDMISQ

[13] = target: T10, LNX2_4, Q8N448
T10 sequence (Q8N448 595-690, limits assumed, looked up): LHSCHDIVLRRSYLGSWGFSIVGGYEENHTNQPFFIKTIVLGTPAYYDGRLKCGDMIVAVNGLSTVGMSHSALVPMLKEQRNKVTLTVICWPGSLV

[14] = target: T11, MAGI2_1, Q86UL8
T11 sequence (Q86UL8 12-111, limits assumed, looked up): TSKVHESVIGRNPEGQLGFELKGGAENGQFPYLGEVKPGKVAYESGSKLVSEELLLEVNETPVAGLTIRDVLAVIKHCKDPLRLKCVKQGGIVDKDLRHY

[15] = target: T12, PDZD2_3, O15018
T12 sequence (O15018 581-682, limits assumed, looked up): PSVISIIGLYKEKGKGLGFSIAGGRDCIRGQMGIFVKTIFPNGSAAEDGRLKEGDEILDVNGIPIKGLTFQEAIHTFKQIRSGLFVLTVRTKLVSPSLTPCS

[16] = target: T13, USH1C_1, Q9Y6N9
T13 sequence (Q9Y6N9 82-179, limits assumed, looked up): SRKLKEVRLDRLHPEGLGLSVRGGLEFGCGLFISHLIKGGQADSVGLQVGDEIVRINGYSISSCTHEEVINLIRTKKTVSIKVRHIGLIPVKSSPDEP

[17] = target: RGS3, P49796-9
[18] = target: T14, USH1C_3, Q9Y6N9
T14 sequence (Q9Y6N9 447-547, limits assumed, looked up): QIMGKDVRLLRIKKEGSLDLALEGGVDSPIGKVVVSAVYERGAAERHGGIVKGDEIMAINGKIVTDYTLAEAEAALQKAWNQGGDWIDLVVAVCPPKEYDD

[19] = target: T15, SHANK3, Q9BYB0
T15 sequence (Q9BYB0 641-750, limits assumed, looked up): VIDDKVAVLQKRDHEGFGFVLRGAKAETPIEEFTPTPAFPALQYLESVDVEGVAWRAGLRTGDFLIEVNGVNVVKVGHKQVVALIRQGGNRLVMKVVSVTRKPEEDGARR

[20] = target: RIMS1, Q86UR5
[21] = target: RIMS2, Q9UQ26
Sequence of RIMS2, Q9UQ26 (Q9UQ26 637-758): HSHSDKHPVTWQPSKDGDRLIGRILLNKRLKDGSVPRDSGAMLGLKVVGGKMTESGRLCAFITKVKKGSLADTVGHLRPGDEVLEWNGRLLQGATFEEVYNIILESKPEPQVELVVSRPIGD

Sequence of RIMS1, Q86UR5 (Q86UR5 584-692): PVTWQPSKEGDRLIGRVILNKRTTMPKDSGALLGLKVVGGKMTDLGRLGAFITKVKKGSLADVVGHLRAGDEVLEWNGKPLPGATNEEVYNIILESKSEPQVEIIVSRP
Sequence of RGS3, P49796-9 (P49796 other isoform, or with tags, fused parts or gaps): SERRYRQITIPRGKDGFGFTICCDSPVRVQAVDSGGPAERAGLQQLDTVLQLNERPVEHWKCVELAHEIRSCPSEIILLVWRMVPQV
Sequence of DVL2, O14641 (O14641 260-359): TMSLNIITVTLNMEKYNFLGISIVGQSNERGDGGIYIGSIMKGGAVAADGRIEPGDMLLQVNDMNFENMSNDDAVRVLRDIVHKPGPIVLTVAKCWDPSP
Sequence of MAST3, O60307 (O60307 945-1048): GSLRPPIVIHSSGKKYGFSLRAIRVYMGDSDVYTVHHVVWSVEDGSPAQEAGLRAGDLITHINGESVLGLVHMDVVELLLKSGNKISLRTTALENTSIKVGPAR
Sequence of CNKSR3, Q6P9H4 (Q6P9H4 203-303): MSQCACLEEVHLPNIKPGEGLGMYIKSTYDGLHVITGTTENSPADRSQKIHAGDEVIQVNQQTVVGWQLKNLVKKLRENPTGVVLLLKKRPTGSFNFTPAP

Binder | pKd [1] | pKd [2] | pKd [3] | pKd [4] | pKd [5] | pKd [6] | pKd [7] | pKd [8] | pKd [9] | pKd [10] | pKd [11] | pKd [12] | pKd [13] | pKd [14] | pKd [15] | pKd [16] | pKd [17] | pKd [18] | pKd [19] | pKd [20] | also measured
B1 | 3.59 | below the threshold | below the threshold | below the threshold | below the threshold | below the threshold | 3.56 | below the threshold | below the threshold | below the threshold | below the threshold | below the threshold | below the threshold | below the threshold | below the threshold | below the threshold |  |  |  |  | 
B2 | below the threshold | below the threshold | below the threshold | 4.05 | 4.12 | 4.8 | below the threshold | below the threshold | below the threshold | below the threshold | below the threshold | below the threshold | below the threshold | below the threshold | below the threshold | below the threshold | below the threshold | below the threshold | below the threshold | below the threshold | pKd [21]: below the threshold
B3 | below the threshold | below the threshold | below the threshold | below the threshold | below the threshold | below the threshold | below the threshold | below the threshold | below the threshold | below the threshold | below the threshold | below the threshold | below the threshold | below the threshold | below the threshold | below the threshold | below the threshold | below the threshold | below the threshold | below the threshold | pKd [21]: below the threshold
B4 | below the threshold | below the threshold | below the threshold | below the threshold | below the threshold | below the threshold | 3.86 | below the threshold | below the threshold | below the threshold | 3.96 | below the threshold | below the threshold | below the threshold | below the threshold | below the threshold |  |  | below the threshold |  | 
B5 | below the threshold | below the threshold | below the threshold | below the threshold | below the threshold | below the threshold | below the threshold | below the threshold | 4.64 | below the threshold | below the threshold | below the threshold | 4.73 | below the threshold | below the threshold | below the threshold | below the threshold | below the threshold | below the threshold | below the threshold | pKd [21]: below the threshold
B6 | below the threshold | 4.25 | below the threshold | below the threshold | below the threshold | below the threshold | below the threshold | below the threshold | below the threshold | 4.12 | below the threshold | 4.86 | below the threshold | below the threshold | below the threshold | below the threshold | below the threshold | below the threshold | below the threshold | below the threshold | pKd [21]: below the threshold
B7 | below the threshold | 3.58 | below the threshold | below the threshold | below the threshold | below the threshold | below the threshold | below the threshold |  | below the threshold | below the threshold | below the threshold | below the threshold | below the threshold | below the threshold |  | below the threshold | below the threshold | 4.14 | below the threshold | pKd [21]: below the threshold

Source: paper PMC9482650, “Quantitative fragmentomics allow affinity mapping of interactomes” (Nature Communications, 2022)
